By Kd is commonly meant the equilibrium constant for the complex coming apart. A high value points to weaker binding.

Data on three molecules can be found in paper PMC8458453, “Structural basis of human PDZD8–Rab7 interaction for the ER-late endosome tethering” (Scientific Reports, 2021).

Residue numbers refer to the chain shown, from its start. Names and notes keep the numbering of the source.

This assay deals with T1, human Rab7 Q67L (residues 2–195), GTP-loaded (human, UniProt P51149 2-195, Q67L).
T1 construct: Supplemented with 1 mM GTP; Mg2+ and GTP are seen in the structure; also called Rab7A; Rab7-GTP; source: E. coli BL21(DE3), purified (Ni-NTA, thrombin cleavage, SEC; same procedure as the PDZD8 CC)
Put plainly: ITC; 1 mM MBP-PDZD8 CC in the syringe injected (2 μl × 25) into 0.1 mM Rab7 in the cell; 20 °C; 20 mM Tris-HCl pH 7.5, 150 mM NaCl; Rab7 Q67L loaded with 1 mM GTP, Rab7 T22N with 1 mM GDP; two-site model for wild type, independent (single-site) model for mutants. Particulars: both partners purified.

T1 sequence (P51149 2-195 Q67L): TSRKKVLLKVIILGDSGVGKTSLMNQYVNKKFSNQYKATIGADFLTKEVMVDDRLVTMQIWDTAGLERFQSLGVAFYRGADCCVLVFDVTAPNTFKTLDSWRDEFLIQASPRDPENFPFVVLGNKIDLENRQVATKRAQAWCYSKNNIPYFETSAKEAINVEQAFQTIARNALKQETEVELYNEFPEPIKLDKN

B1: MBP-PDZD8 CC A1086R (domain or fragment, human, UniProt Q8NEN9 994-1123, looked up)
chain: GNSTGIKLVRKEGGLDDSVFIAVKEIGRDLYRGLPTEERIQKLEFMLDKLQNEIDQELEHNNSLVREEKETTDTRKKSLLSAALAKSGERLQRLTLLMIHYRAGIEDIETLESLSLDQHSKKISKYTDDT
notes: also called PDZD8 A1086R; source: purified recombinant protein; not shown: His tag, N-terminal, kept; MBP, N-terminal, kept
In turn, B1 registered an equilibrium dissociation constant (Kd) of 0.66 µM.

B2: MBP-PDZD8 CC I1092E (domain or fragment, human, UniProt Q8NEN9 994-1123, looked up)
chain: B1 chain with R93A, I99E
notes: also called PDZD8 I1092E; source: purified recombinant protein; not shown: His tag, N-terminal, kept; MBP, N-terminal, kept
B2 had a Kd of 9.2 µM.

B3: MBP-PDZD8 CC, residues 980–1123 (domain or fragment, human, UniProt Q8NEN9 980-1123, looked up)
chain: SDTEVCGPNSPSKRGNSTGIKLVRKEGGLDDSVFIAVKEIGRDLYRGLPTEERIQKLEFMLDKLQNEIDQELEHNNSLVREEKETTDTRKKSLLSAALAKSGERLQALTLLMIHYRAGIEDIETLESLSLDQHSKKISKYTDDT
notes: source: purified recombinant protein; not shown: His tag, N-terminal, kept; MBP, N-terminal, kept
Consider B3, for which the binding result is recorded as “binds”.
